Experimental data as given in patent publication US20210369812A1, “OSTEOINDUCTIVE PEPTIDES, COMPOSITIONS, IMPLANTS, AND METHODS OF USE” (The Board of Regents of the University of Oklahoma, priority 2018, published 2021).
“Also recorded” adds a separate entry of the source.

Legend:
BMPR1A = target: T1, BMPR1A (Homo sapiens, UniProt P36894); assay: Biopanning of Ph.D.-12 phage library on immobilized BMPR1A-Fc; type: binding; details: peptide displayed on p3 of M13 phage; 3 rounds of panning
T1 construct: purchased G&P Biosciences
T1 sequence (P36894 24-152 limits assumed): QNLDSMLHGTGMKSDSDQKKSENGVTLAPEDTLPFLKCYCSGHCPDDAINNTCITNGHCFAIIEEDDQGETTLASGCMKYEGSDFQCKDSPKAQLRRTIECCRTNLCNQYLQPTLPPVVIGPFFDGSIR
Method: (§1) The Ph.D.™-12 phage library was diluted in tris-buffered saline mixed with Tween-20 (TBS+0.1% v/v Tween-20 and abbreviated TBST) for a final concentration of 2×10^11 phage in 1 mL of TBST. The diluted library was then pipetted onto one of the wells of a 12-well poly-L-lysine plate followed by rocking the plate gently for 60 minutes at room temperature. […] This supernatant served as the starting phage library for subsequent binding selections. The phages which stuck to the plate were discarded.
(§2) This procedure is only applicable if the charge of the desired protein to be immobilized is negative, determined by checking the pI value of the protein. […]. This procedure was written for 12-well plates coated in poly-L-lysine (positively charged). Separate solutions of BMPR1A-Fc and BMPR2-Fc were prepared at 80 μg/ml in Tris-buffered saline (pH 7.5). In separate wells and on separate poly-L-lysine coated 12-well plates, 0.3 ml of each solution of receptor was added. The solutions of BMPR1A-Fc and BMPR2-Fc were swirled around the plate surface until the entire surface was wet. The plates were then incubated overnight at 4° C. with gentle agitation in a humidified container (a sealed plastic box with damp paper towels). Each individual receptor was now immobilized.
(§3) The following selection procedure is based off of the direct coating procedure outlined in the Ph.D.™-12 Phage Display Libraries instructional manual (New England Biolabs) with some alterations. This procedure was carried out after immobilizing the targets BMPR1A-Fc and BMPR2-Fc in a 12-well poly-L-lysine coated plate. A stock solution of tetracycline was prepared (20 mg/ml in 1:1 ethanol:water). The coating solution containing the target receptors was poured off followed by firmly slapping the plates face down on a clean paper towel. Each well was then filled with blocking buffer (0.1 M NaHCO3 (pH 8.6), 5 mg/mL BSA, 0.02% NaN3. Filter sterilize, store at 4° C.) and incubated for 1 hour at 4° C. The blocking solution was then poured off followed by firmly slapping the plates down against a clean paper towel. Each plate was washed rapidly 6 times with Tris-buffered saline mixed with Tween-20 (TBS+0.1% v/v Tween-20). The plate was slapped against a clean paper towel each time. 1 ml of the phage library created from the negative selection process was then pipetted onto each of the target coated wells. The plates were then rocked gently at room temperature for 60 min. The non-binding phages were then discarded by pouring off the supernatant and slapping the plate face-down on a clean paper towel. The plate was then washed 10 times with TBST followed by slapping the plate face-down on a clean paper towel each time (a clean section of paper towel was used each time to prevent cross-contamination). The bound phages were then eluted by incubating with a nonspecific disruption buffer (0.2 M Glycine-HCl (pH 2.2), 1 mg/ml bovine serum albumin (BSA) for 15 minutes. The eluate (immersed in the disruption buffer) was then pipetted into a microcentrifuge tube followed by neutralization with 150 μl of 1 M Tris-HCl (pH 9.1). A small portion (˜1 μl) of this eluate could be titered and sequenced if desired. The rest of the eluate was amplified (see amplification of phage library section). Once amplified, the eluate was also titered. Determine the concentration of amplified phages by counting the blue plaques in titering as described. Dilute the amplified library to contain 2×10^11 phages in 1 mL of TBS (as little as 10^9 plaque forming units per ml can be used if there is not enough). A second poly-L-lysine 12-well plate was then coated with the target receptors to allow for a second round of biopanning carried out using the same steps except that the Tween-20 concentration in the wash steps was raised to 0.5% (v/v). The eluate from the second round was then amplified, titered and used in an additional 3rd round of panning on newly receptor coated plates. […]

BMPR2 = target: T2, BMPR2 (Homo sapiens, UniProt Q13873); assay: Biopanning of Ph.D.-12 phage library on immobilized BMPR2-Fc; type: binding; details: peptide displayed on p3 of M13 phage; 3 rounds of panning
T2 construct: purchased G&P Biosciences
T2 sequence (Q13873 27-150 limits assumed): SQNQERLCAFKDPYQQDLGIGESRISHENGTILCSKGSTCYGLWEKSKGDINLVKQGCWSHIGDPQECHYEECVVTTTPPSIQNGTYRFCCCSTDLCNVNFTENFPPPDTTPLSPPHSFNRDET
Method: as §1, §2, §3

[1] = tested on: human mesenchymal stem cells (hMSCs); assay: Live cell binding through immunofluorescence; type: cell-based; details: 10^12 phages/ml
Method: Human mesenchymal stem cells (hMSCs) were grown to roughly 60% plate coverage in a 48-well tissue culture plate according to the company Lonza's culturing protocols. […] The hMSCs were then blocked with 0.5% BSA (dissolved in cell media) for 1 hour. The cell media for the hMSCs was then replaced with 1 ml of new cell media having of concentration of 10^12 phages/ml. Next, the plates were washed once with 400 μl of phosphate buffered saline (PBS) at a pH of 7.4. The hMSCs were then incubated with Anti-M13 Bacteriophage Coat Protein g8p antibody [RL-ph2] (ab9225) at a 1:1000 dilution in cell media (200 μl per well). The wells were then washed again with PBS (400 μl per wash). Next, the hMSCs were incubated with the secondary antibody, Goat-anti mouse AF-488 (Abcam) for 1 hour (1 ug/ml final concentration of antibody in media). The wells were then washed again with PBS (400 μl per wash). A Hoechst nuclear stain was used to stain the nuclei (PureBlu™ Hoechst 33342 Nuclear Staining Dye #1351304 from BioRad) according to the company's protocol. Cell Mask™ Orange Plasma Membrane Stain was used to stain membranes (CellMask™ Orange Plasma Membrane Stain Catalog number: C10045 from Thermo Fisher Scientific) according to the company's protocol. The phages binding to the cells were then imaged on a Nikon Eclipse Ti fluorescent microscope.

Row | Sequence | Binding to BMPR1A found by biopanning (frequency among sequenced plaques) (BMPR1A) | Binding to BMPR2 found by biopanning (frequency among sequenced plaques) (BMPR2) | Binding of peptide-bearing phages to live hMSCs [1]
1 | SGTQDSMVGWNK (Completely synthesized in the lab - Ph.D.-12 Phage Display Peptide Library Kit (New England Biolabs)) | showed up as a result of biopanning on both BMPR1A alone and BMPR2 alone; also recorded: discovered to bind | showed up as a result of biopanning on both BMPR1A alone and BMPR2 alone; also recorded: discovered to bind | bound to what appeared to be the same location as the outer membrane; also recorded: demonstrated an ability to bind to the outer membrane
2 | VHVPLHRGAVSA (Completely synthesized in the lab - Ph.D.-12 Phage Display Peptide Library Kit (New England Biolabs)) | discovered to bind | discovered to bind | bound to what appeared to be the same location as the outer membrane; also recorded: demonstrated an ability to bind to the outer membrane
